As usually defined, the stoichiometry N is a count of units in the complex or per binding partner.

Values joined by “and” are separate entries in the source; they are usually repeats but may differ in a detail not shown here. Identical values can stand only once.

This experiment has as its target CUL9 (endogenous, U2OS) (human (endogenous in U2OS)) (UniProt Q8IWT3). Briefly: sucrose gradient fractionation; 1 mg U2OS lysate on a continuous 5–40% sucrose gradient, 160,000g, 16 h, 4 °C; fractions immunoblotted for CUL9; purified hexameric CUL9–RBX1 and dimeric CUL9^(R125A Y152A)–RBX1 run for comparison. To be noted: remark: other sources report otherwise. On the technique in general: A western blot detects proteins with antibodies after separation by electrophoresis.

Turning to CUL9 (endogenous, U2OS), Q8IWT3 1-2517, the stoichiometry N was 6 and 2.

The values above are taken from article PMC11257990.
